{
  "source": "patent US5580958",
  "biological_target": "PU.1 (PU pECE) (Mus musculus) (UniProt P17433)",
  "assay": "cell_activity",
  "settings": "8 copies upstream of TK-CAT in HeLa; 1 copy 3.5-3.6 fold, 4 copies 3.9-4.3 fold",
  "data": [
    {"substance": "PU-1 (SV40 enhancer PU box)", "values": [
      {"measurement": "activity", "value": 18.3, "unit": "fold"}
    ]}
  ]
}
